In experiment [1] the target is T1, recombinant human CLCF1 (cardiotrophin-like cytokine factor 1), residues 28-225 (UniProt Q9UBD9 28-225).
T1 chain: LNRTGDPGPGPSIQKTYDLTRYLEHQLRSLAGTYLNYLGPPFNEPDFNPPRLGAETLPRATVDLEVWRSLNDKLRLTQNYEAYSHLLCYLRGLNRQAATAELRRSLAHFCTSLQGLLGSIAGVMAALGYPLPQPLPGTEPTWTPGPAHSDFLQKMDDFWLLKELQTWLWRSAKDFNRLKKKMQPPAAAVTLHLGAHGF
Nature of the experiment: yeast display flow cytometry; apparent Kd, ±0.006. On the technique in general: In flow cytometry, cells or beads pass a laser one at a time.

The target of experiment [2] is T1, recombinant human CLCF1 …. Kind of experiment: yeast display flow cytometry; apparent Kd, ±0.4.
In experiment [3] the target is T1, recombinant human CLCF1 …. Nature of the experiment: yeast display flow cytometry; apparent Kd, ±5.
Experiment [4] has as its target T1, recombinant human CLCF1 …. Kind of experiment: yeast display flow cytometry; apparent Kd, ±0.07.
Experiment [5] deals with T1, recombinant human CLCF1 …. Nature of the experiment: yeast display flow cytometry; apparent Kd, ±0.02.
The target in experiment [6] is T2, recombinant human CLCF1 (cardiotrophin-like cytokine factor 1), residues 28-225 (human, UniProt Q9UBD9 28-225).
T2 construct: Only one recombinant CLCF1 preparation is described; also called CLCF1-His; not shown: His tag (named CLCF1-His, detected with anti-HIS antibody)
T2 sequence: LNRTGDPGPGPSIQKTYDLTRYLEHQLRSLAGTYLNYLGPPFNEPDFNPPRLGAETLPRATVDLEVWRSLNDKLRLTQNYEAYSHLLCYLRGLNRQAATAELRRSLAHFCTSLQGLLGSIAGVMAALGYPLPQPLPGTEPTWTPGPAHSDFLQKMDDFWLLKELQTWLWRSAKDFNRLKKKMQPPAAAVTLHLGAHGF
Kind of experiment: microtiter plate-based assay (capture of the CNTFR construct, detection with anti-CLCF1).

In experiment [7] the target is T1, recombinant human CLCF1 …. Nature of the experiment: ELISA; ±6.
For experiment [8], the target named is T1, recombinant human CLCF1 …. Nature of the experiment: yeast display flow cytometry; apparent Kd, ±3.
In experiment [9] the target is T1, recombinant human CLCF1 …. Nature of the experiment: yeast display flow cytometry; apparent Kd, ±0.003.
Experiment [10] deals with T2, recombinant human CLCF1 …. Kind of experiment: yeast display, flow cytometry titration with CLCF1. The text has this: Directed evolution was used to engineer a soluble CNTFR variant with stronger affinity for CLCF1 and lack of binding to gp130 and LIFR. It was hypothesized that such a molecule would act as an efficient ligand trap and antagonize CLCF1-mediated oncogenic signaling. To develop a high-affinity receptor decoy, DNA encoding the extracellular domain of CNTFR was subjected to random mutagenesis via error-prone PCR. […] The library was screened to enrich for variants with increased CLCF1 binding using flow cytometry. After 3 rounds of screening, T174P and S237F appeared as consensus mutations, with substantial diversity observed at other amino acid positions. To probe additive effects of these mutations, 20 randomly selected distinct clones from the sorted populations were shuffled using the Staggered Extension Process (StEP) method to create a second library. A combination of equilibrium binding and kinetic off-rate screens were used to sort this library to impose increased screening stringency (FIG. 2, panel C). […]
Yeast displaying the CNTFR constructs were incubated with varying concentrations of CLCF1 for 12 h at room temperature to reach equilibrium binding. […] Then samples were washed and analyzed by flow cytometry using BD Accuri flow cytometer. Samples were analyzed on BD Bioscience software, and data were analyzed using FlowJo software (Treestar Inc).

The target of experiment [11] is T3, mouse CLCF1 (mouse, UniProt Q9QZM3 28-225).
T3 sequence (looked up): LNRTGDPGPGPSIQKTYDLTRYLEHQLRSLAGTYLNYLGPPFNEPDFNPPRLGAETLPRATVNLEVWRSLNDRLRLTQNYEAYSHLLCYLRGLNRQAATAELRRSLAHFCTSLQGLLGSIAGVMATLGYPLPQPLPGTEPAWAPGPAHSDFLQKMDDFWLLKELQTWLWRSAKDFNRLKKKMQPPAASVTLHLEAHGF
Kind of experiment: microtiter plate-based binding assay.

Experiment [12] addresses T4, recombinantly produced CNTF (ciliary neurotrophic factor) (Homo sapiens (Human), UniProt P26441 1-200).
T4 sequence: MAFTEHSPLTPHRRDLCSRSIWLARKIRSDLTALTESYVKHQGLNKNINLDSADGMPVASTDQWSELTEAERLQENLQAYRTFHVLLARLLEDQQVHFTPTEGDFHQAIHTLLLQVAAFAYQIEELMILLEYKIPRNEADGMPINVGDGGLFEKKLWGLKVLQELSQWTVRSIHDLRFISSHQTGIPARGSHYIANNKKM
Nature of the experiment: microtiter plate-based binding assay.

The target of experiment [13] is T1, recombinant human CLCF1 …. Kind of experiment: ELISA; ±4. On the technique in general: In an ELISA, binding on a coated surface is turned into a signal by an enzyme label.
The target in experiment [14] is T5, mouse CLCF1 (mouse, UniProt Q9QZM3 28-225).
T5 chain: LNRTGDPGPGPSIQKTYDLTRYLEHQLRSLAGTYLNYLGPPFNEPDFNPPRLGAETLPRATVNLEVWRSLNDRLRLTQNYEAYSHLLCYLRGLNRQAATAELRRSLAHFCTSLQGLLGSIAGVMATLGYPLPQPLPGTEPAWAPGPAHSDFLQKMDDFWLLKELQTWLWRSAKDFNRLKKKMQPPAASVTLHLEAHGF
Nature of the experiment: ELISA; ±7.

B1: Variant 3 (T174P, S237F, I287F) (protein)
chain: MAAPVPWACCAVLAAAAAVVYAQRHSPQEAPHVQYERLGSDVTLPCGTANWDAAVTWRVNGTDLAPDLLNGSQLVLHGLELGHSGLYACFHRDSWHLRHQVLLHVGLPPREPVLSCRSNTYPKGFYCSWHLPTPTYIPNTFNVTVLHGSKIMVCEKDPALKNRCHIRYMHLFSPIKYKVSISVSNALGHNATAITFDEFTIVKPDPPENVVARPVPSNPRRLEVTWQTPSTWPDPEFFPLKFFLRYRPLILDQWQHVELSDGTAHTITDAYAGKEYIIQVAAKDNEFGTWSDWSVAAHATPWTEEPRHLTTEAQAAETTTSTTSSLAPPPTTKICDPGELGSGGGPSAPFLVSVPITLALAAAAATASSLLI
Regarding B1, the Kd in [1] was determined as 49 pM.

B2: Variant 1 (S237F) (protein)
chain: MAAPVPWACCAVLAAAAAVVYAQRHSPQEAPHVQYERLGSDVTLPCGTANWDAAVTWRVNGTDLAPDLLNGSQLVLHGLELGHSGLYACFHRDSWHLRHQVLLHVGLPPREPVLSCRSNTYPKGFYCSWHLPTPTYIPNTFNVTVLHGSKIMVCEKDPALKNRCHIRYMHLFSTIKYKVSISVSNALGHNATAITFDEFTIVKPDPPENVVARPVPSNPRRLEVTWQTPSTWPDPEFFPLKFFLRYRPLILDQWQHVELSDGTAHTITDAYAGKEYIIQVAAKDNEIGTWSDWSVAAHATPWTEEPRHLTTEAQAAETTTSTTSSLAPPPTTKICDPGELGSGGGPSAPFLVSVPITLALAAAAATASSLLI
B2: the Kd in [2] is 41000 pM.

B3: Neg sort (R110Q, T174P, Y177H, K178N, S237F, I287F) (protein)
chain: MAAPVPWACCAVLAAAAAVVYAQRHSPQEAPHVQYERLGSDVTLPCGTANWDAAVTWRVNGTDLAPDLLNGSQLVLHGLELGHSGLYACFHRDSWHLRHQVLLHVGLPPQEPVLSCRSNTYPKGFYCSWHLPTPTYIPNTFNVTVLHGSKIMVCEKDPALKNRCHIRYMHLFSPIKHNVSISVSNALGHNATAITFDEFTIVKPDPPENVVARPVPSNPRRLEVTWQTPSTWPDPEFFPLKFFLRYRPLILDQWQHVELSDGTAHTITDAYAGKEYIIQVAAKDNEFGTWSDWSVAAHATPWTEEPRHLTTEAQAAETTTSTTSSLAPPPTTKICDPGELGSGGGPSAPFLVSVPITLALAAAAATASSLLI
For B3, in experiment [3], the Kd was determined as 14 pM.

B4: Variant 5 (S237F, I287F) (protein)
chain: MAAPVPWACCAVLAAAAAVVYAQRHSPQEAPHVQYERLGSDVTLPCGTANWDAAVTWRVNGTDLAPDLLNGSQLVLHGLELGHSGLYACFHRDSWHLRHQVLLHVGLPPREPVLSCRSNTYPKGFYCSWHLPTPTYIPNTFNVTVLHGSKIMVCEKDPALKNRCHIRYMHLFSTIKYKVSISVSNALGHNATAITFDEFTIVKPDPPENVVARPVPSNPRRLEVTWQTPSTWPDPEFFPLKFFLRYRPLILDQWQHVELSDGTAHTITDAYAGKEYIIQVAAKDNEFGTWSDWSVAAHATPWTEEPRHLTTEAQAAETTTSTTSSLAPPPTTKICDPGELGSGGGPSAPFLVSVPITLALAAAAATASSLLI
In the case of B4, in experiment [4], the Kd worked out at 40 pM.

B5: Variant 2 (T174P, S237F) (protein)
chain: MAAPVPWACCAVLAAAAAVVYAQRHSPQEAPHVQYERLGSDVTLPCGTANWDAAVTWRVNGTDLAPDLLNGSQLVLHGLELGHSGLYACFHRDSWHLRHQVLLHVGLPPREPVLSCRSNTYPKGFYCSWHLPTPTYIPNTFNVTVLHGSKIMVCEKDPALKNRCHIRYMHLFSPIKYKVSISVSNALGHNATAITFDEFTIVKPDPPENVVARPVPSNPRRLEVTWQTPSTWPDPEFFPLKFFLRYRPLILDQWQHVELSDGTAHTITDAYAGKEYIIQVAAKDNEIGTWSDWSVAAHATPWTEEPRHLTTEAQAAETTTSTTSSLAPPPTTKICDPGELGSGGGPSAPFLVSVPITLALAAAAATASSLLI
Regarding B5, the Kd in [5] came to 890 pM.

B6: soluble eCNTFR with a C-terminal hexahistidine tag (receptor)
chain: QRHSPQEAPHVQYERLGSDVTLPCGTANWDAAVTWRVNGTDLAPDLLNGSQLVLHGLELGHSGLYACFHRDSWHLRHQVLLHVGLPPQEPVLSCRSNTYPKGFYCSWHLPTPTYIPNTFNVTVLHGSKIMVCEKDPALKNRCHIRYMHLFSPIKHNVSISVSNALGHNATAITFDEFTIVKPDPPENVVARPVPSNPRRLEVTWQTPSTWPDPEFFPLKFFLRYRPLILDQWQHVELSDGTAHTIAAAYAGKEYIIQVAAKDNEFGTWSDWSVAAHATPWTEEPRHLTTEAQAAETTTSTTSSLAPPPTTKICDPGELGS
notes: also called eCNTFR-His; not shown: C-terminal hexahistidine tag
For B6, the binding result in experiment [6] is recorded as “binds”. For the same molecule, in [7], the Kd came to 75 pM.

B7: yeast-displayed CNTFR variant 4 (R110Q, T174P, S237F, I287F) (receptor)
chain: AVVYAQRHSPQEAPHVQYERLGSDVTLPCGTANWDAAVTWRVNGTDLAPDLLNGSQLVLHGLELGHSGLYACFHRDSWHLRHQVLLHVGLPPQEPVLSCRSNTYPKGFYCSWHLPTPTYIPNTFNVTVLHGSKIMVCEKDPALKNRCHIRYMHLFSPIKYKVSISVSNALGHNATAITFDEFTIVKPDPPENVVARPVPSNPRRLEVTWQTPSTWPDPEFFPLKFFLRYRPLILDQWQHVELSDGTAHTITDAYAGKEYIIQVAAKDNEFGTWSDWSVAAHATPWTEEPRHLTTEAQAAETTTSTTSSLAPPPTTKICDPGELGS
notes: not shown: Aga2p fusion partner and linkers of the pCTCON2 yeast display plasmid; c-Myc tag used to detect expression
Turning to B7, the Kd in experiment [8] worked out at 19 pM; in [9], 19 pM; in experiment [10] it was 20 pM.

B8: soluble eCNTFR fused to an antibody Fc domain (Fc fusion)
chain: QRHSPQEAPHVQYERLGSDVTLPCGTANWDAAVTWRVNGTDLAPDLLNGSQLVLHGLELGHSGLYACFHRDSWHLRHQVLLHVGLPPQEPVLSCRSNTYPKGFYCSWHLPTPTYIPNTFNVTVLHGSKIMVCEKDPALKNRCHIRYMHLFSPIKHNVSISVSNALGHNATAITFDEFTIVKPDPPENVVARPVPSNPRRLEVTWQTPSTWPDPEFFPLKFFLRYRPLILDQWQHVELSDGTAHTIAAAYAGKEYIIQVAAKDNEFGTWSDWSVAAHATPWTEEPRHLTTEAQAAETTTSTTSSLAPPPTTKICDPGELGSRRLEPRGPTIKPCPPCKCPAPNLLGGPSVFIFPPKIKDVLMISLSPIVTCVVVDVSEDDPDVQISWFVNNVEVHTAQTQTHREDYNSTLRVVSALPIQHQDWMSGKEFKCKVNNKDLPAPIERTISKPKGSVRAPQVYVLPPPEEEMTKKQVTLTCMVTDFMPEDIYVEWTNNGKTELNYKNTEPVLDSDGSYFMYSKLRVEKKNWVERNSYSCSVVHEGLHNHHTTKSFSRTPGK
notes: The tie is the identical set of eight mutations plus an Fc domain; also called eCNTFR-Fc
With B8, the binding result was “binds” with mouse CLCF1 [11], “no binding” in experiment [12] and “binds” in [6]. In addition, the Kd stood at 63 pM in experiment [13] and 131 pM with mouse CLCF1 [14].

Values taken from patent publication US20220331401A1 (Stanford University, published 2022).
